Patent publication US20240270828A1 (UAB RESEARCH FOUNDATION, published 2024)

T1: Spike of MERS-CoV on infected Vero E6 cells and live virus (MERS-CoV, UniProt K9N5Q8 18-1353)
T1 sequence: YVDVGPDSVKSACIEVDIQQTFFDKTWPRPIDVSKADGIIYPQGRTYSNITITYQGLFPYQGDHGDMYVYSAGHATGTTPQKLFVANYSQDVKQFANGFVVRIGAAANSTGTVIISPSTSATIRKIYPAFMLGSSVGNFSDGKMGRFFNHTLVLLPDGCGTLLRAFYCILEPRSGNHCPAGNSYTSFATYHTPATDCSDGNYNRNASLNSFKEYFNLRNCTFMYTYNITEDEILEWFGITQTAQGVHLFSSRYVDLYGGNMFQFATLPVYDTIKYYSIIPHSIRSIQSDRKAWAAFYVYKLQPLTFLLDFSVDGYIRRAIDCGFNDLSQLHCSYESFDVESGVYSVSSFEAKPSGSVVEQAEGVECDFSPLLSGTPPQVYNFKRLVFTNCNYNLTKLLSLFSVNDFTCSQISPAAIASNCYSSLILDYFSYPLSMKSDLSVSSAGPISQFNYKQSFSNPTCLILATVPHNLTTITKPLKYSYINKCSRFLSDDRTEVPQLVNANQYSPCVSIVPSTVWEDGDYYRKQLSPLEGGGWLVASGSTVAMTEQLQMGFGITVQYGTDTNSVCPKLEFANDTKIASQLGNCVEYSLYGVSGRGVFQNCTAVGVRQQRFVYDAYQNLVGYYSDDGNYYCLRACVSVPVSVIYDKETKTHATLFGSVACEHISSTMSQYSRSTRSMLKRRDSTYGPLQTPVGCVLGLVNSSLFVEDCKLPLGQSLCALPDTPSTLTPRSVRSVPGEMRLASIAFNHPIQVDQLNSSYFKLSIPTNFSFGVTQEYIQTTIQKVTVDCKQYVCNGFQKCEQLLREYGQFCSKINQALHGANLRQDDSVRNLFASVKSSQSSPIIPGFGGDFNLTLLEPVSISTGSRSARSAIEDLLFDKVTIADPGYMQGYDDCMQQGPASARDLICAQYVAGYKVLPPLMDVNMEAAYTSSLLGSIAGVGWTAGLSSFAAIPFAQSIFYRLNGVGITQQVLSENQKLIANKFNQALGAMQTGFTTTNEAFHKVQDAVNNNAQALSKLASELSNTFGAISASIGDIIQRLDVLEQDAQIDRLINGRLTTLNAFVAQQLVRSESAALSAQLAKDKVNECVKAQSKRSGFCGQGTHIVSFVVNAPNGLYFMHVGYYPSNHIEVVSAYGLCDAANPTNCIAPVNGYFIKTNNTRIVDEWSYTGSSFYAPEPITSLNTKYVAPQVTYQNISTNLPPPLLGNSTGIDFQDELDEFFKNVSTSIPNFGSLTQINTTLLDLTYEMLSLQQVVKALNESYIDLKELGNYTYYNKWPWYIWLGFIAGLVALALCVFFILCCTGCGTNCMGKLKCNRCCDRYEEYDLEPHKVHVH


Key:
[1] = biological target: Spike of live SARS-CoV-2 WT virus (SARS-CoV-2, UniProt P0DTC2 14-1273); experiment: cell-based or functional assay
[2] = biological target: T2, SARS-CoV-2 S1 (40591-V08H3, Sino Biological) (SARS-CoV-2, UniProt P0DTC2 16-685); experiment: ELISA, hmAb at 10 and 1 ug/ml in duplicate; AUC
T2 construct: domain: S1

[3] = biological target: T3, SARS-CoV-2 S2 (40590-V08B, Sino Biological) (SARS-CoV-2, UniProt P0DTC2 686-1213); experiment: ELISA, hmAb at 10 and 1 ug/ml in duplicate; AUC
T3 construct: domain: S2

[4] = biological target: T4, SARS-CoV-2 S1+S2 (40589-V08B1, Sino Biological) (SARS-CoV-2, UniProt P0DTC2 16-1213); experiment: ELISA, hmAb at 10 and 1 ug/ml in duplicate; AUC
[5] = biological target: T2, SARS-CoV-2 S1 (40591-V08H3, Sino …); experiment: ELISA on coated protein, anti-human IgG-HRP; AUC of the OD
[6] = biological target: T3, SARS-CoV-2 S2 (40590-V08B, Sino …); experiment: as above
[7] = biological target: T4, SARS-CoV-2 S1+S2 (40589-V08B1, Sino …); experiment: as above
[8] = biological target: Spike of SARS-CoV (Urbani) on infected Vero E6 cells and live virus (SARS-CoV, UniProt P59594 14-1255); experiment: immunofluorescence on infected Vero E6 cells, 1 µg/ml
[9] = biological target: T1, Spike of MERS-CoV on infected Vero E6 …; experiment: as above

Binder | Neutralization IC50 (µg/ml), Live Virus WT [1] [µg/mL] | Binding AUC [2] | binding result [2] | Binding AUC [3] | Binding AUC [4] | Binding AUC [5] | Binding AUC [6] | Binding AUC [7] | binding result [8] | binding result [9] | binding result [5]
1235C10 (antibody, V domains shown, Recombinant human IgG1) VH: EVQLVESGGGLVQPGRSLRLSCTASGFTFGDHSMSWVRQAPGKGLEWVGFIRSKAYGGTTEYAASVKGRFTISRDDSKSIAYLQMNSLKIEDTAVYYCTRGLTGLDYWGQGMLVTVSS VL: not shown | 10.4 | 0.8 | no binding (tested: 10 ug/ml) | 26.9 | 25.2 | 0.8 | 26.9 | 25.2 |  |  | 
1242F4 (antibody, V domains shown, Recombinant human IgG1) VH: EVQLVQSGAEVKKPGTSVKVSCKASGNTVADYYMHWVRQAPRQGLEWVGLINPSGSGTAYAQNFQGRVTLTRDTSTSTLYMELGSLGSEDTAIYYCARMDSSGTYDVWGQGTLVTVSS VL: EIVLTQSPGTLSLSPGERATLSCRASQSIRSGYLAWYQQKPGQAPRLLIRGASVKATGIPDRFSGSGSGTDFTLTISRLEPEDFVVYYCQHFASSPPRYTFGQGTKLEIK | 36.5 | 1.3 | no binding (tested: 10 ug/ml) | 28.5 | 27 | 1.3 | 28.5 | 27 | binds | binds | 
1250E10 (antibody, V domains shown, Recombinant human IgG1) VH: EVQLVQSGAEVKKPGASVKFSCKASGFRVDGSYMHWVRQAPRGGLEWMGLINPSGSGTAYAQIFQGRVTLTRDTSTSTLYMELGSLGSEDTAMYYCARMDRSGSYDLWGQGTLVIVSS VL: DIVLTQSPGNLSLSPGERATLSCRASESIRSAYIAWYQQKPGQAPRLLMRGASVRAAGIPDRFSGSGSGTDYALTISRLEPEDFAVYYCQHFASSPPRYTFGQGTKLEIK | > 50 | 2.9 | no binding (tested: 10 ug/ml) | 27.9 | 26 | 2.9 | 27.9 | 26 |  |  | 
1246C2 (antibody, V domains shown) VH: QVQLVQSGGGLVKPGGSLRLSCAASGFTFKTHNMIWVRQAPGKVLEWVSSISGSSSYRYYGDSMKGRLTISRDNAKNSLYLEMNSLRAEDTAVYYCARDKGVGPTMVWYFDLWGRGTLVTVSS VL: EIVLTQSPATLSLSPGDRATLSCRASQSLSISLAWYQQKPGQAPRLLIYDASIRATGVPPRFSGSGSGTDFTLTISSLEPEDFAVYYCQQWSGWPPRLTFGGGTKVEIK | > 50 | 4.2 | no binding (tested: 10 ug/ml) | 17.4 | 18 | 4.2 | 17.4 | 18 |  |  | 
1242G6 (antibody, V domains shown, Recombinant human IgG1) VH: QVQLVQSGGGVVQPGTSVRLSCAASGFTFSDHGMHWVRQAPGKGLEWVAVISFEGRNKFFADSVKGRSTISRDNSKNTVSMQVDNVRPEDTAVYYCAREHFDGSGSDYIGTRFFDYWGRGALVTVSS VL: DIQLTQSPSFLSASVGDRVTITCRASQGISHYLTWYQQKPGKAPKLLIYRTSTLQSGVPSRFSGSGSGTVFTLTISSLQPEDLATYYCQHLDNFPTITFGQGTRLDLK | > 50 | 3.8 |  | 22.6 | 24.3 | 3.8 | 22.6 | 24.3 |  |  | no binding
1250D2 (antibody, V domains shown, Recombinant human IgG1) VH: QVQLVQSGAEVKKPGASMKVSCKASGFTFSDYYMHWVRQAPRQGLEWMGLINPSGSGTAYAQNFQGRVTLTRDTSTSTLYMEMGSLTSDDTAVYYCARMDSSGSYDHWGQGTLVTVSS VL: EIVLTQSPGTLSLSPGDRATLSCRASQTIRISYLAWYQQKPGQAPRLLVYGPSIRATGIPDRFSASGSGTDFTLTISRLEPEDFAVYYCQHYGSSPPRYTFGQGTKLEIK | 2.36 | 1.7 | no binding (tested: 10 ug/ml) | 28.2 | 25.3 | 1.7 | 28.2 | 25.3 | binds | binds | 
1212C2 (antibody, V domains shown) VH: QVQLVQSGAEVKKPGASVKVSCKASGYIFTDYFIHWVRQAPGQGLEWMGWINPNSGGTKYAQKFQGRVTMTRDTSISTVYMELSRLRSDDTAVHYCTRDLPLRTLYDSYGFDSWGQGTLVTVSS VL: LPVLTQPASVSGSPGQSITISCTGTSSDVGSYNLVSWYQQHPGKAPKLMIYDVSKRPSGVSNRFSGSKSGNTASLTISGLQAEDEADYYCCSYAGNSIVFFGGGTKLTVL | 0.003 |  |  |  |  |  |  |  |  |  | 
1242D11 (antibody, V domains shown) VH: QVQLVQSGGGLVQPGGSLRLSCAVSGFTFSSYWMSWVRQAPGKGLEWVANIKQDGSEKYYVDSVKGRFTISRDNAKNSLFLQMNSLRAEDTAVYYCAREAVGYYYDSRGYHYSWYFDLWGRGTLVTVSS VL: EIVLTQSPGTLSLSPGERATLSCRASQSVSSSYLVWYQQKPGQAPRLLIFGASSRATGIPDRFSGSGSGTDFTLTISSLEPEDFAVYYCQHYGSSPPMYTFGQGTKLEIK |  | 2.9 |  | 24.4 | 21.4 | 2.9 | 24.4 | 21.4 |  |  | no binding
1246H7 (antibody, V domains shown) VH: QVQLQQSGPGLMKPSETLSLTCTVSGGSISSSSYYWGWIRQPPGKGLEWIGSIYYSGATYYNPSLKSRVTISVDTSKNQLSLKLSSVTAADTAVYYCVNRYYDYVWGSWGVDCWGQGTLVTVSS VL: QAGLTQPRSVSGSPGQSVTISCTGTSSDVGGYNYVSWYQQHPGKAPKLMIYDVNKRPSGVPDRFSGSKSGNTASLTISGLQAEDEADYFCCSYAGSYTYWVFGGGTKLTVL |  | 1.7 |  | 4.8 | 5 | 1.7 | 4.8 | 5 |  |  | no binding
1232D5 (antibody, V domains shown) VH: EVQLVESGGGVVQPGGSLRLSCAASGFTFSNYGMHWVRQAPSKGLEWVAFIRYDGTNKYYADSVKGRFTISRDNSKNTLYLQINSLRAEDTAVYYCAIIAVAGDVNPDYWGQGTLVTVSS VL: not shown |  | 1.1 |  |  | 11.7 | 1.1 |  | 11.7 |  |  | no binding
1242F11 (antibody, V domains shown) VH: QVQLVQSGGGLVQPGGSLRLSCAASGFTFSSYWMTWVRQAPGKGLEWVANIKQDGREIYYVDSVKGRFTLSRDNAKNSLYLQMNSLRAEDTAVFYCARIRVFVSADSEGYHYYYGLDVWGQGTTVTVSP VL: not shown |  |  |  |  |  | 1.9 |  | 24.1 |  |  | 
